# Values of other authors in patent US6726924B2, “Oral liposomal delivery system” (Biozone Laboratories, Inc., priority 1997, dated 2004).
# Conditions: oral; free vs liposomes with ceramides; Regnault et al. 1996
substance,measurement,value
superoxide dismutase,bioavailability,14%
